From patent publication US20230250156A1
Several values for one entry are separate records, joined by “and”; a condition that tells them apart may be missing. Equal entries are not always repeated.

Molecular target: SARS-CoV-2 RBD protein (SARS-CoV-2) (UniProt P0DTC2)

ACE2 Ig-TD Quad (ACE2(18-615) Ig-TD) (Fc fusion)
IC50: 0.45 nM and 0.449 nM
